Consider six molecules from article PMC8560823, “Structural insights into the clustering and activation of Tie2 receptor mediated by Tie2 agonistic antibody” (Nature Communications, 2021).

The target of data set [1] is T1, mouse Tie2 Ig3–Fn3 (Mus musculus, UniProt Q02858).
T1 construct: mouse Tie2, Ig3–Fn3, residues 349–737; also called mTie2 Ig3–Fn3; mTie2
The experiment in a line: BLI; Octet, 30 °C; humanized IgG1s and mouse Tie2; how the humanized IgG1s were loaded is not told (Supplementary Fig. 5f). The conditions noted are these: both partners purified. For orientation: BLI is a label-free optical method that tracks binding on a fibre tip over time.

Data set [2] deals with the molecule itself. The experiment in a line: cross-linking; engineered disulfide bonds (D682C/N691C) across the Fn3–Fn3' interface; SDS-PAGE with Coomassie blue under reducing and non-reducing conditions.
The target in data set [3] is T2, human Tie2 extracellular domain (hTie2 ECD) (human, UniProt Q02763).
T2 construct: human Tie2, extracellular domain, residues 23–735 of human Tie2; Host, tags and purification of the ECD are not described; also called Human Tie2 ECD; source: produced in house
The experiment in a line: SPR; Biacore T200; hTie2 ECD immobilised on CM5 chip by amine coupling (10 mM acetate pH 5.5); antibodies flowed at 0-64 nM, 300 s association, 300 s dissociation, 30 µl/min; HBS-EP+ buffer; 1:1-binding model, global fit. The settings on record: both partners purified. On the technique in general: Surface plasmon resonance follows binding to a sensor surface in real time, without labels.

Data set [4] has as its target T1, mouse Tie2 Ig3–Fn3. The experiment in a line: BLI; Octet, 30 °C; mouse hTAAB (10 μg/ml) loaded on anti-mouse IgG Fc capture (AMC) biosensors; 1600 nM mouse Tie2 Ig3–Fn3 in kinetics buffer (0.01% BSA, 0.002% Tween-20, 0.005% NaN3 in PBS); 600 s association, 600 s dissociation. The conditions noted are these: both partners purified.

The Kd is the concentration at which binding is half-saturated. For orientation: koff means the first-order rate constant of dissociation. The low end stands for slow dissociation, the high end for fast dissociation. A word on the kon: it is a measure of how fast the partners come together. Low readings indicate slow association, high ones fast association.

T2 sequence (Q02763 23-735): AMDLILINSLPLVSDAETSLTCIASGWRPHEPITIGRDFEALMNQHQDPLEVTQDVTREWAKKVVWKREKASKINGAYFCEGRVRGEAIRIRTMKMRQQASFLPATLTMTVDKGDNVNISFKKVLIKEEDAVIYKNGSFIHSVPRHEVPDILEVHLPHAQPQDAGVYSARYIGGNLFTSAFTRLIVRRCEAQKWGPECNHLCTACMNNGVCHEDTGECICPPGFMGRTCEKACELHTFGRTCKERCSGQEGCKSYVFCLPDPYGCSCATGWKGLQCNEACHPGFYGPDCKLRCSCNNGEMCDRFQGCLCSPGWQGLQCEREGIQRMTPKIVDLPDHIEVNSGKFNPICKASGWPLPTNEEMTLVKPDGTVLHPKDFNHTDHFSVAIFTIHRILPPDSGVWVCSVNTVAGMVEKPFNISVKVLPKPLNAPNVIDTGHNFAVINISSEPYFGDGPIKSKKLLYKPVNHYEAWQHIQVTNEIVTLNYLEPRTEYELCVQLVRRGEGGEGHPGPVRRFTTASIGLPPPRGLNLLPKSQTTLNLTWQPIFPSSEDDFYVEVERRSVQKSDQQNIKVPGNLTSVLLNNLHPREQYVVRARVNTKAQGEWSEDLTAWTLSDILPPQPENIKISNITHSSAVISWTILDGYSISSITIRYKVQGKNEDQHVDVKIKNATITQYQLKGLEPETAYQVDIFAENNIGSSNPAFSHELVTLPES
T1 sequence (Q02858 349-737): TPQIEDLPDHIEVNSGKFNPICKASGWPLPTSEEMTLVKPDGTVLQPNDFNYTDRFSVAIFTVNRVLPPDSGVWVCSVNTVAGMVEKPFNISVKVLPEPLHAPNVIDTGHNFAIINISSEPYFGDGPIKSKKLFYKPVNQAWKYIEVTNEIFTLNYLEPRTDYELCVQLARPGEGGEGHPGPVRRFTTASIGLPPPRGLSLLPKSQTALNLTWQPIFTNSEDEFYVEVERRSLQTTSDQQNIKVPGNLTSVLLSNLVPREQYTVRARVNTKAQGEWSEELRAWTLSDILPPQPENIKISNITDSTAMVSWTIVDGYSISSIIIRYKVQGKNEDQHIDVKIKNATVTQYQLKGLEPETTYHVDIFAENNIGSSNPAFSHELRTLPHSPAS

B1: hzTAAB-H1L1 (antibody, V domains shown)
VH: QVQLVQSGAEVKKPGASVKVSCKASGYSFTSYWMHWVRQAPGQGLEWMGIIHPSDSETRYAQKFQGRVTMTRDTSTSTVYMELSSLRSEDTAVYYCARGLYGNSWGQGTLVTVSS
VL: DIQMTQSPSSLSASVGDRVTITCRASQDIGISLGWYQQKPGKAPKRLIYATSSLQSGVPSRFSGSGSGTEFTLTISSLQPEDFATYYCLQYASSPYTFGQGTKLEIK
For B1, the binding result in the data set with mouse Tie2 Ig3–Fn3 [1] is recorded as “no binding (tested: 1600 nM)”.

B2: hzTAAB-H2L2 (antibody, V domains shown)
VH: QVQLVQSGAEVKKPGASVKVSCKASGYSFTSYWMHWVRQAPGQGLEWMGIIHPSDSETRYAQKFQGRVTMTVDKSTSTVYMELSSLRSEDTAVYYCARGLYGNSWGQGTLVTVSS
VL: DIQMTQSPSSLSASVGDRVTITCRASQDIGISLNWLQQKPGKAPKRLIYATSSLDSGVPSRFSGSRSGTEFTLTISSLQPEDFATYYCLQYASSPYTFGQGTKLEIK
Consider B2, for which, in the data set with mouse Tie2 Ig3–Fn3 [1], the binding result is recorded as “no binding (tested: 1600 nM)”.

B3: hzTAAB-H1L2 (antibody, V domains shown)
VH: QVQLVQSGAEVKKPGASVKVSCKASGYSFTSYWMHWVRQAPGQGLEWMGIIHPSDSETRYAQKFQGRVTMTRDTSTSTVYMELSSLRSEDTAVYYCARGLYGNSWGQGTLVTVSS
VL: DIQMTQSPSSLSASVGDRVTITCRASQDIGISLNWLQQKPGKAPKRLIYATSSLDSGVPSRFSGSRSGTEFTLTISSLQPEDFATYYCLQYASSPYTFGQGTKLEIK
As for B3, the binding result in the data set with mouse Tie2 Ig3–Fn3 [1] is “no binding (tested: 1600 nM)”.

B4: hzTAAB-H2L1 (antibody, V domains shown)
VH: QVQLVQSGAEVKKPGASVKVSCKASGYSFTSYWMHWVRQAPGQGLEWMGIIHPSDSETRYAQKFQGRVTMTVDKSTSTVYMELSSLRSEDTAVYYCARGLYGNSWGQGTLVTVSS
VL: DIQMTQSPSSLSASVGDRVTITCRASQDIGISLGWYQQKPGKAPKRLIYATSSLQSGVPSRFSGSGSGTEFTLTISSLQPEDFATYYCLQYASSPYTFGQGTKLEIK
On to B4, for which, in the data set with mouse Tie2 Ig3–Fn3 [1], the binding result is reported as “no binding (tested: 1600 nM)”.

B5: hTie2 Ig3–Fn3 D682C/N691C (domain or fragment, human, UniProt Q02763 349-738, looked up)
chain: TPKIVDLPDHIEVNSGKFNPICKASGWPLPTNEEMTLVKPDGTVLHPKDFNHTDHFSVAIFTIHRILPPDSGVWVCSVNTVAGMVEKPFNISVKVLPKPLNAPNVIDTGHNFAVINISSEPYFGDGPIKSKKLLYKPVNHYEAWQHIQVTNEIVTLNYLEPRTEYELCVQLVRRGEGGEGHPGPVRRFTTASIGLPPPRGLNLLPKSQTTLNLTWQPIFPSSEDDFYVEVERRSVQKSDQQNIKVPGNLTSVLLNNLHPREQYVVRARVNTKAQGEWSEDLTAWTLSDILPPQPENIKISNITHSSAVISWTILDGYSISSITIRYKVQGKNECQHVDVKIKCATITQYQLKGLEPETAYQVDIFAENNIGSSNPAFSHELVTLPESQAP
modifications: two intermolecular disulfide bonds between the introduced cysteines 682 and 691
notes: human Tie2, Ig3–Fn3, residues 349–738, with D682C and N691C; Made by overlap extension PCR from the pFuse-hTie2 Ig3–Fn3–hIgG1–Fc construct; also called constitutive Tie2 Ig3–Fn3 dimer; Tie2 dimeric mutant; source: Expi293F, secreted as Fc fusion, purified as for hTie2 Ig3–Fn3 (MabSelect SuRe, Fc removed by thrombin); not shown: Fc (human IgG1), C-terminal, cleaved
Consider B5, for which the binding result in data set [2] is recorded as “binds”.

B6: human Tie2-activating antibody (hTAAB), mouse IgG1 (antibody, V domains shown)
VH: QVQLQQPGAELVRPGASVKLSCKASGYSFTSYWMNWVKQRPGQGLEWIGMIHPSDSETRLNQKFMDKATLTVDKSSSTAYMQLSSPTSEDSAVYYCARGLYGNSWGQGTLVTVSA
VL: DIQMTQSPSSLSASLGERVSLTCRASQDIGISLNWLQQEPDGTIKRLIYATSSLDSGVPKRFSGSRSGSDYSLTISSLESEDFVDYYCLQYASSPYTFGGGTKLEIK
notes: heavy-chain variable region of hTAAB (clone 3H7; closest germline mIGHV1-61*01); mouse IgG1 heavy-chain constant region; light-chain variable region of hTAAB (clone 3H7; closest germline mIGKV9-120*01); mouse kappa light-chain constant region; Mouse IgG1 from the hybridoma; also called 3H7; mouse hTAAB; source: B-cell hybridoma clone 3H7, serum-free culture supernatant, purified (Protein G); …
As to B6, in data set [3], the affinity, expressed as Kd, was 4.2 nM; the koff is 0.0006 s⁻¹; the kon stood at 140000 M⁻¹ s⁻¹. Besides, the binding result in the data set with mouse Tie2 Ig3–Fn3 [4] was “no binding (tested: 1600 nM)”.
